Measured values as given in paper PMC6457933 (Science Advances, 2019).

Key:
Assay in all cases: crystal structure
[1] = molecular target: KR2 G263F mutant (Krokinobacter eikastus)
[2] = molecular target: KR2 S254A mutant (Krokinobacter eikastus)
crystal structure = molecular target: the molecule itself

KR2 G263F mutant (natural protein)
stoichiometry N [1]: 5

KR2 S254A mutant (natural protein)
stoichiometry N [2]: 5

B1: Krokinobacter eikastus rhodopsin 2 (KR2), wild type (natural protein)
chain: MTQELGNANFENFIGATEGFSEIAYQFTSHILTLGYAVMLAGLLYFILTIKNVDKKFQMSNILSAVVMVSAFLLLYAQAQNWTSSFTFNEEVGRYFLDPSGDLFNNGYRYLNWLIDVPMLLFQILFVVSLTTSKFSSVRNQFWFSGAMMIITGYIGQFYEVSNLTAFLVWGAISSAFFFHILWVMKKVINEGKEGISPAGQKILSNIWILFLISWTLYPGAYLMPYLTGVDGFLYSEDGVMARQLVYTIADVSSKVIYGVLLGNLAITLSKNKELVEANS
modifications: retinal covalently bound to Lys255 via the Schiff base
stoichiometry N (crystal structure): 5
